Test results from paper PMC5868259.

Target: PKA catalytic subunit (PKAc), recombinant (UniProt P05132)
Assay: fluorescence polarisation; LiReC competition assay, R-subunit inhibition response without cAMP: 10.0 nM PKAc, 1 nM-1 μM bRIα (monomer), 1.67 nM [5/6-FAM]-IP20; 50 mM MOPS pH 7.0, 35 mM NaCl, 10 mM MgCl2, 1 mM ATP, 2 mM DTT, 0.005% Triton X-100

| Substance | IC50 [nM] | Kd [nM] |
| --- | --- | --- |
| recombinant bovine PKA regulatory subunit RIα (bRIα), S101A mutant (from UniProt P00514 1-380) (natural protein) | 5.05 | < 10 |
| recombinant bovine PKA regulatory subunit RIα (bRIα), S101E phosphomimetic mutant (from UniProt P00514 1-380) (natural protein) | 212 |  |
| recombinant bovine PKA regulatory subunit RIα (bRIα), wildtype (from UniProt P00514 1-380) (natural protein) | 4.5 | < 10 |
